Assay [1] concerns the target T1, human integrin avb8 (human).
T1 chain 1: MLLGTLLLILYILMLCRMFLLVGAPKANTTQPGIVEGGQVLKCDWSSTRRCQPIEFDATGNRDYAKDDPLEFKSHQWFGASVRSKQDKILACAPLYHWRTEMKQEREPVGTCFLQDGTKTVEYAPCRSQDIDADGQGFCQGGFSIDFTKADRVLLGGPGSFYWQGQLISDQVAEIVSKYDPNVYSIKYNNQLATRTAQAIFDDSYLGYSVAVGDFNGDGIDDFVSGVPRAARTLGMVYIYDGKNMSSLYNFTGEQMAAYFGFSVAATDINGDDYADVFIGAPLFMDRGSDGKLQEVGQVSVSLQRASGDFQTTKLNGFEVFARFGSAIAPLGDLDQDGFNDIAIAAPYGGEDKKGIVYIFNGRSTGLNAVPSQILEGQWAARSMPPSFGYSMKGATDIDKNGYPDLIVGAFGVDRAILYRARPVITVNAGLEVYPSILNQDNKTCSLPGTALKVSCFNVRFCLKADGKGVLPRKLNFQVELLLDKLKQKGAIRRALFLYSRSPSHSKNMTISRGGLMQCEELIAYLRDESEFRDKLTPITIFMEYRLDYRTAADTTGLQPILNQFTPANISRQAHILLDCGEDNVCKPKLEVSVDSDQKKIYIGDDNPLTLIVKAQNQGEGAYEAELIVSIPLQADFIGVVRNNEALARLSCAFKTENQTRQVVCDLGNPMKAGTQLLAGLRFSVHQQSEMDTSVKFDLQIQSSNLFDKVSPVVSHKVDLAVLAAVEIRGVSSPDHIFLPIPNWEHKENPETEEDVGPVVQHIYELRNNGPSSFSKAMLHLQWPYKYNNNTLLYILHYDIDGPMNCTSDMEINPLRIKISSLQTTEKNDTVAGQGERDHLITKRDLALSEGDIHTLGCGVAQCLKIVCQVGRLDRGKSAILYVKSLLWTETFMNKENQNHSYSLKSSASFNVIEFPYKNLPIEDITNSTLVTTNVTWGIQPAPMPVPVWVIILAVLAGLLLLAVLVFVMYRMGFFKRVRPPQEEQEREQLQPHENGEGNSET
T1 chain 2: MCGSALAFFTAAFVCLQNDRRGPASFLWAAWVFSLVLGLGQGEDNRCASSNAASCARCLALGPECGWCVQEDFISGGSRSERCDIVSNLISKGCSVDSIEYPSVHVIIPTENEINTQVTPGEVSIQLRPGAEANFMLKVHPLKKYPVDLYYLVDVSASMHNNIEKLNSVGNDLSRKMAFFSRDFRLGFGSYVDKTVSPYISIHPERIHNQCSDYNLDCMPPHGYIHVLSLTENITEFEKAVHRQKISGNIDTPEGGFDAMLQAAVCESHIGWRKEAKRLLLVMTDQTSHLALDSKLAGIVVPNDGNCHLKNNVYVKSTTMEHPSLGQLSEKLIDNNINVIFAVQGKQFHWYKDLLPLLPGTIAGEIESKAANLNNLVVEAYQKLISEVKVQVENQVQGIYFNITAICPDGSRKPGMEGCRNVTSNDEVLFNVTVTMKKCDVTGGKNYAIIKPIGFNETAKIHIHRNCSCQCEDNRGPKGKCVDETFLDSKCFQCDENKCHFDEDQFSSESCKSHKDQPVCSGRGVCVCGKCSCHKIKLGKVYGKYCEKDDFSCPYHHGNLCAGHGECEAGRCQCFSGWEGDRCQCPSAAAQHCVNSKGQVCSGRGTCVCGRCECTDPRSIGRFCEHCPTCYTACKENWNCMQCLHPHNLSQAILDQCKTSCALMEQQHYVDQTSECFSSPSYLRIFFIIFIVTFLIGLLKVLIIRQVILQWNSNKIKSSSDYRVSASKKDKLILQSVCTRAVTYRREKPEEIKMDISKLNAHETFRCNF
Nature of the assay: SPR. On the technique in general: In SPR one partner is held on a chip, and binding of the other changes the refractive index at the surface.

For assay [2], the target named is T1, human integrin avb8. Nature of the assay: FACS U251 cells.

Where “and” joins values, the source holds several entries; their conditions need not be identical. Identical values can stand only once.

B1: Mouse hybridoma ADWA-11 Fab (antibody, V domains shown)
VH: EVQLQQSGAELVRPGAFVKLSCKASGFNIKDYYMNWVLQRPEQGLEWIGWIDPDNGNTIYDPKFQGKASITADTSSNTAYLQLSSLTSEDTAVYYCARRLLMDYWGQGTSVTVSS
VL: DIVMTQAAPSVPVTPGESVSISCRSTKSLLHFNGNTYLFWFLQRPGQSPQRLIYYMSNLASGVPDRFSGRGSGTDFTLRISRVEAEDVGVYYCMQSLEYPFTFGTGTKLEIK
Take B1: in the assay with human integrin avb8 [1], binding was characterised by a dissociation constant (Kd) of 536 pM.

B2: ADWA11 2.4 IgG (antibody)
chain 1: EVQLVESGGGLVQPGGSLRLSCAASGFNIKDYYMNWVRQAPGKGLEWVGWIDPDQGNTIYEPKFQGRFTISADTSKNSAYLQMNSLRAEDTAVYYCARRLLMDYWGQGTLVTVSSASTKGPSVFPLAPSSKSTSGGTAALGCLVKDYFPEPVTVSWNSGALTSGVHTFPAVLQSSGLYSLSSVVTVPSSSLGTQTYICNVNHKPSNTKVDKKVEPKSCDKTHTCPPCPAPEAAGAPSVFLFPPKPKDTLMISRTPEVTCVVVDVSHEDPEVKFNWYVDGVEVHNAKTKPREEQYNSTYRVVSVLTVLHQDWLNGKEYKCKVSNKALPAPIEKTISKAKGQPREPQVYTLPPSREEMTKNQVSLTCLVKGFYPSDIAVEWESNGQPENNYKTTPPVLDSDGSFFLYSKLTVDKSRWQQGNVFSCSVMHEALHNHYTQKSLSLSPGK
chain 2: DIQMTQSPSSLSASVGDRVTITCRSTKSLSHFNGNTYLFWYQQKPGKAPKRLIYYMSSLASGVPSRFSGSGSGTDFTLTISSLQPEDFATYYCQQSLEYPFTFGGGTKVEIKRTVAAPSVFIFPPSDEQLKSGTASVVCLLNNFYPREAKVQWKVDNALQSGNSQESVTEQDSKDSTYSLSSTLTLSKADYEKHKVYACEVTHQGLSSPVTKSFNRGEC
B2: the EC50 (as a rule, the concentration needed to bring the measured effect to its halfway point) with human integrin avb8 [2] is 256 pM and 126 pM.

B3: ADWA11 VH05/VK01 (VH05-2_VK01) Fab (antibody, V domains shown)
VH: EVQLVESGGGLVQPGGSLRLSCAASGFNIKDYYMNWVRQAPGKGLEWVGWIDPDNGNTIYDPKFQGRFTISADTSKNSAYLQMNSLRAEDTAVYYCARRLLMDYWGQGTLVTVSS
VL: DIQMTQSPSSLSASVGDRVTITCRSTKSLLHFNGNTYLFWYQQKPGKAPKRLIYYMSNLASGVPSRFSGSGSGTDFTLTISSLQPEDFATYYCMQSLEYPFTFGQGTKVEIK
As for B3, the Kd (usually the constant that tells how readily two partners part at equilibrium) in the assay with human integrin avb8 [1] is less than 100 pM.

The values above are taken from patent US20220289850 (published 2022).
